# Literature values as cited in publication PMC3373146.
# Like-named read-outs stand apart in the source and are kept apart here.
# How the values were obtained:
# KCa2.1 (SK1) = KCa2.1 (SK1) (UniProt Q92952)
# KCa2.3 (SK3) = KCa2.3 (SK3) (UniProt Q9UGI6)
# KCa2.2 (SK2) = KCa2.2 (SK2) (UniProt Q9H2S1)
# Kv2.1 [1] = molecular target: Kv2.1 (UniProt Q14721)
# Kv2.1 [2] = molecular target: Kv2.1 (UniProt Q14721); remark: listed apart in the source
# Sequence of Kv2.1 (Q14721 whole entry): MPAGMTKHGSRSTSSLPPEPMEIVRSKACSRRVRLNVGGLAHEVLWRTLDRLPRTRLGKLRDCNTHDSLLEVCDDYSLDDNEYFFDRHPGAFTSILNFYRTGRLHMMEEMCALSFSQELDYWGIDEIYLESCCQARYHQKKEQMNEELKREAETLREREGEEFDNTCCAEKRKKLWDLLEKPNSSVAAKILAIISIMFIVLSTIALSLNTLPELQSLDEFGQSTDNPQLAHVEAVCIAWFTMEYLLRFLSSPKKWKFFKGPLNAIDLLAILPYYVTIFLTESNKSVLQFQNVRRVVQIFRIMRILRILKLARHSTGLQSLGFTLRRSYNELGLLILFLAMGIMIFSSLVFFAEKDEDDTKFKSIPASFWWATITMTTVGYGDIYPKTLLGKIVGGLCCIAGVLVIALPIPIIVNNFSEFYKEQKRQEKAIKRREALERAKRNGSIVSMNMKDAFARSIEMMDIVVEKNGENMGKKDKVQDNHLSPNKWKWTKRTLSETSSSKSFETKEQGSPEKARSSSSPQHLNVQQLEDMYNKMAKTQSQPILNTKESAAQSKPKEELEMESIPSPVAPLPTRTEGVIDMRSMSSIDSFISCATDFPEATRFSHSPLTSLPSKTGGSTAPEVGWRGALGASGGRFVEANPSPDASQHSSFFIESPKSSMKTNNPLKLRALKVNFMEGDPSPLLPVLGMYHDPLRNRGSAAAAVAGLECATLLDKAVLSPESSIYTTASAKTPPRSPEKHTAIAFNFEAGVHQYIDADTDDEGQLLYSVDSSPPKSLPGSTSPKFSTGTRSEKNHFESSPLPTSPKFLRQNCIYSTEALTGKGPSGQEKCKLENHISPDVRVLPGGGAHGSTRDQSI
# Sequence of hanatoxin 2 (P56853 whole entry): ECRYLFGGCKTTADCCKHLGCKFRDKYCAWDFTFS
# Sequence of KCa2.1 (SK1) (Q92952 whole entry): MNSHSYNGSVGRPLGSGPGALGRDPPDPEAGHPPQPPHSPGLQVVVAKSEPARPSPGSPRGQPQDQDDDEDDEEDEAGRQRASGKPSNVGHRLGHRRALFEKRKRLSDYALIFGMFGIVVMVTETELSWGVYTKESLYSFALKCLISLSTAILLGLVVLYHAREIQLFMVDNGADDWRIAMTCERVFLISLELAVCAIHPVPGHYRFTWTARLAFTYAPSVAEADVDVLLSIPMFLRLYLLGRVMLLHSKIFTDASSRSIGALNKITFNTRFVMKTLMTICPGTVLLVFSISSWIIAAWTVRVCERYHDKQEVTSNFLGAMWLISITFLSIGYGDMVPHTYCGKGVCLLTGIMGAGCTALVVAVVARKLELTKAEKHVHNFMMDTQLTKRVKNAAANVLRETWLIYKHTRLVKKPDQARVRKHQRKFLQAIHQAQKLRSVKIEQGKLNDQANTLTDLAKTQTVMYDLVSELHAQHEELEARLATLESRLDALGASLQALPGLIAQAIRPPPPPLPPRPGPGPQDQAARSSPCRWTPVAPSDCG
# Sequence of KCa2.3 (SK3) (Q9UGI6 whole entry): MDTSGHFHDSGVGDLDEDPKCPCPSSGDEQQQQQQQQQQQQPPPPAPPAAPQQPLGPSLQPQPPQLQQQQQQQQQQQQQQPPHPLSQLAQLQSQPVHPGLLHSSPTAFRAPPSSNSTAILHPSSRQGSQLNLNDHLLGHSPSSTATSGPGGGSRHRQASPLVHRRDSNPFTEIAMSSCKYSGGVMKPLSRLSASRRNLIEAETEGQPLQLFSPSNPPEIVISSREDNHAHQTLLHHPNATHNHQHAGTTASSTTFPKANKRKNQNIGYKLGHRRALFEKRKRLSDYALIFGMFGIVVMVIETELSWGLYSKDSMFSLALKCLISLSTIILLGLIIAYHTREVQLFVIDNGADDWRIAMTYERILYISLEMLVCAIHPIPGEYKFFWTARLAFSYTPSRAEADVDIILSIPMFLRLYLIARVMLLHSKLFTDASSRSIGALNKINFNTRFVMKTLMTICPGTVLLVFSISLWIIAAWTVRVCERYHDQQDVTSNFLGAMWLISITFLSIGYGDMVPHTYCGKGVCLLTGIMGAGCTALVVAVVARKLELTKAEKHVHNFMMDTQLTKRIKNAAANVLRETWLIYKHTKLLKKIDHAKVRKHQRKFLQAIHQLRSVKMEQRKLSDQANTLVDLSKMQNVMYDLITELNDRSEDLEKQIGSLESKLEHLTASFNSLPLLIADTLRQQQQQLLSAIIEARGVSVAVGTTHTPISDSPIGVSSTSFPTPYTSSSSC
# Sequence of hanatoxin 1 (P56852 50-84): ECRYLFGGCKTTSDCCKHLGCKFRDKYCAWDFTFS
# Sequence of KCa2.2 (SK2) (Q9H2S1 whole entry): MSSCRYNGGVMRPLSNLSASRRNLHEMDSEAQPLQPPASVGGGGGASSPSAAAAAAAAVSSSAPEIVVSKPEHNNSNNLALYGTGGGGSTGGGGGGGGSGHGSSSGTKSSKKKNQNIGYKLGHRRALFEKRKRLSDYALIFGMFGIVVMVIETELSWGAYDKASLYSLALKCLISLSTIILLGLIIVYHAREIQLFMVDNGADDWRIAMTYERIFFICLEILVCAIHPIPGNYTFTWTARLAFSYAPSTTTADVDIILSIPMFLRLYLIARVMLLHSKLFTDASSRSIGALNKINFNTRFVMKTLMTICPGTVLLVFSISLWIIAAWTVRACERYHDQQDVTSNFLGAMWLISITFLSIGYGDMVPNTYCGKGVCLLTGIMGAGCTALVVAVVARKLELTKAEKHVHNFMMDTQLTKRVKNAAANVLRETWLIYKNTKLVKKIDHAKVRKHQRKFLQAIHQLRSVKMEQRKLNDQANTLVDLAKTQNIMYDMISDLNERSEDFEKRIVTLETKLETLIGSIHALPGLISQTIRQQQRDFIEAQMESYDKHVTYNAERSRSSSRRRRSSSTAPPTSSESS
substance,measurement,setting,value
apamin (from UniProt P01500),Kd,KCa2.1 (SK1),0.39 nM
same,Kd,KCa2.3 (SK3),0.011 nM
same,Kd,KCa2.2 (SK2),4 pM
hanatoxin 1 (from UniProt P56852),Kd,Kv2.1 [1],42 nM
hanatoxin 2 (from UniProt P56853),Kd,Kv2.1 [2],42 nM
